US20140274782A1, “AFFINITY REAGENTS AND METHODS FOR DETECTION, PURIFICATION, AND PROTEOMIC ANALYSIS OF METHYLATED PROTEINS” (The Board of Trustees of the Leland Stanford Junior …, priority 2013, published 2014)

T1: G9a and GLP (Homo sapiens, UniProt Q96KQ7+Q9H9B1)
T1 sequence (Q96KQ7 2-1210 limits assumed): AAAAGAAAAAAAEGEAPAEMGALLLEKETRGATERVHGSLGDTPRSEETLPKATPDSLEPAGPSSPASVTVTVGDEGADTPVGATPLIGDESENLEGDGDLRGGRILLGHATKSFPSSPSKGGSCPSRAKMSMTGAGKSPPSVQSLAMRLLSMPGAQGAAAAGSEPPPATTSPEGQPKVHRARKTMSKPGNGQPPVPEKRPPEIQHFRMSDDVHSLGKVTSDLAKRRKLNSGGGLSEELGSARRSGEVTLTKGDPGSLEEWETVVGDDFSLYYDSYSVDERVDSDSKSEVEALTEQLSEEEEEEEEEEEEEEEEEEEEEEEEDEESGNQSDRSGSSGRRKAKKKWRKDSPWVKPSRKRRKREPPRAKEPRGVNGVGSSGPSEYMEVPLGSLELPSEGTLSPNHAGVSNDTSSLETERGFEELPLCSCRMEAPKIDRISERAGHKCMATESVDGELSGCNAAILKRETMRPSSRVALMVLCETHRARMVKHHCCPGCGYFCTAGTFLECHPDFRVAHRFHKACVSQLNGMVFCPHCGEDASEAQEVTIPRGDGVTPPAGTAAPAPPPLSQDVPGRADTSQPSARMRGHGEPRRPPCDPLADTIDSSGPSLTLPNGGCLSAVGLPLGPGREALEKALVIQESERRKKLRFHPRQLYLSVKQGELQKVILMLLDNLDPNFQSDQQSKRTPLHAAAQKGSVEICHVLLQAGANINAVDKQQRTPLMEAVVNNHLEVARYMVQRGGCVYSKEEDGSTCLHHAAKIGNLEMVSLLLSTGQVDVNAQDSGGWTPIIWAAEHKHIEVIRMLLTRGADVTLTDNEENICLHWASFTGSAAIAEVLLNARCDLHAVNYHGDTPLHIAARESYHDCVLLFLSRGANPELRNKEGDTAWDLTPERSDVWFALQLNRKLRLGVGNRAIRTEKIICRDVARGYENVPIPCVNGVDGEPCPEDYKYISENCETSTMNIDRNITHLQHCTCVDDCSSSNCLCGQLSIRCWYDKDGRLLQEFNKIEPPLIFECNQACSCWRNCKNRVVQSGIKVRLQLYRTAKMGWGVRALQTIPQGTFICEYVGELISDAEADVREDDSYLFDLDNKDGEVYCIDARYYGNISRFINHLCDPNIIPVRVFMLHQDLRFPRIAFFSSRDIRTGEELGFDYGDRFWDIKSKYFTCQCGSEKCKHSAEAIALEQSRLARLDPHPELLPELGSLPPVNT
T1 sequence (Q9H9B1 2-1298 limits assumed): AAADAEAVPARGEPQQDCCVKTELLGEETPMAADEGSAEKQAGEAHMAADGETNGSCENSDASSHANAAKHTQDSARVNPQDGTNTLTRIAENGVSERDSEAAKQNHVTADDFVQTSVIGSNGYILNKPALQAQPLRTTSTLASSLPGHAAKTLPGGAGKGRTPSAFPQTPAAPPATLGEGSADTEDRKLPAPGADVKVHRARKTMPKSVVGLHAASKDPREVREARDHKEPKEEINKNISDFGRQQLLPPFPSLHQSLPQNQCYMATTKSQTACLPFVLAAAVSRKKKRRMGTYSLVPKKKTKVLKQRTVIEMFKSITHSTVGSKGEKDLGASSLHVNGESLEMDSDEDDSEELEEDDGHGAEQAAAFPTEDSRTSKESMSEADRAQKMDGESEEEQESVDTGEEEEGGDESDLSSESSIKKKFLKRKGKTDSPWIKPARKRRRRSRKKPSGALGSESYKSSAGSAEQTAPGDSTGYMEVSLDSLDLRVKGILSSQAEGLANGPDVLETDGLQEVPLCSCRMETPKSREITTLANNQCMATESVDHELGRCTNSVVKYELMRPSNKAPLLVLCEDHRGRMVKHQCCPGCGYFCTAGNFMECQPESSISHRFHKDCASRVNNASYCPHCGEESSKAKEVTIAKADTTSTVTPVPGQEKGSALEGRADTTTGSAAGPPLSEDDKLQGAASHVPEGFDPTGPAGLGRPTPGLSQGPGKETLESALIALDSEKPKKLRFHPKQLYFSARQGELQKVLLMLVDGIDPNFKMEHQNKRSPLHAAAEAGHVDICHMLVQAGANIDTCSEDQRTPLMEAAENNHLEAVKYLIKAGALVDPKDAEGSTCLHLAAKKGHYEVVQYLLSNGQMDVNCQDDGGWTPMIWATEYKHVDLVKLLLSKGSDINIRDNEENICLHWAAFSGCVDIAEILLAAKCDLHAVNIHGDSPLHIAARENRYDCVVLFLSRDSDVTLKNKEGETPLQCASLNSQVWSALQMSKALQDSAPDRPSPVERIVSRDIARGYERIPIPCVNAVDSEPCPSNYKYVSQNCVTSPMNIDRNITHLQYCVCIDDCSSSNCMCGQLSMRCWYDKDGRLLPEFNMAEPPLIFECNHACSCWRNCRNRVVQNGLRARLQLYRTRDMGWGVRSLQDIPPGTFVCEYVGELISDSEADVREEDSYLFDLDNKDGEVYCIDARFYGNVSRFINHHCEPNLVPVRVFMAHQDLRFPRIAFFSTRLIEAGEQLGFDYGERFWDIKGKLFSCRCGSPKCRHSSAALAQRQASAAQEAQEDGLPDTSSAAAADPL

B1: DHX36 (protein, UniProt Q9H2U1 1-1008, looked up)
ATP-dependent DNA/RNA …: MSYDYHQNWGRDGGPRSSGGGYGGGPAGGHGGNRGSGGGGGGGGGGRGGRGRHPGHLKGREIGMWYAKKQGQKNKEAERQERAVVHMDERREEQIVQLLNSVQAKNDKESEAQISWFAPEDHGYGTEVSTKNTPCSENKLDIQEKKLINQEKKMFRIRNRSYIDRDSEYLLQENEPDGTLDQKLLEDLQKKKNDLRYIEMQHFREKLPSYGMQKELVNLIDNHQVTVISGETGCGKTTQVTQFILDNYIERGKGSACRIVCTQPRRISAISVAERVAAERAESCGSGNSTGYQIRLQSRLPRKQGSILYCTTGIILQWLQSDPYLSSVSHIVLDEIHERNLQSDVLMTVVKDLLNFRSDLKVILMSATLNAEKFSEYFGNCPMIHIPGFTFPVVEYLLEDVIEKIRYVPEQKEHRSQFKRGFMQGHVNRQEKEEKEAIYKERWPDYVRELRRRYSASTVDVIEMMEDDKVDLNLIVALIRYIVLEEEDGAILVFLPGWDNISTLHDLLMSQVMFKSDKFLIIPLHSLMPTVNQTQVFKRTPPGVRKIVIATNIAETSITIDDVVYVIDGGKIKETHFDTQNNISTMSAEWVSKANAKQRKGRAGRVQPGHCYHLYNGLRASLLDDYQLPEILRTPLEELCLQIKILRLGGIAYFLSRLMDPPSNEAVLLSIRHLMELNALDKQEELTPLGVHLARLPVEPHIGKMILFGALFCCLDPVLTIAASLSFKDPFVIPLGKEKIADARRKELAKDTRSDHLTVVNAFEGWEEARRRGFRYEKDYCWEYFLSSNTLQMLHNMKGQFAEHLLGAGFVSSRNPKDPESNINSDNEKIIKAVICAGLYPKVAKIRLNLGKKRKMVKVYTKTDGLVAVHPKSVNVEQTDFHYNWLIYHLKMRTSSIYLYDCTEVSPYCLLFFGGDISIQKDNDQETIAVDEWIVFQSPARIAHLVKELRKELDILLQEKIESPHPVDWNDTKSRDCAVLSAIIDLIKTQEKATPRNFPPRFQDGYYS
B2: DDX49 (protein, UniProt Q9Y6V7 1-483, looked up)
Probable ATP-dependent RNA …: MAGFAELGLSSWLVEQCRQLGLKQPTPVQLGCIPAILEGRDCLGCAKTGSGKTAAFVLPILQKLSEDPYGIFCLVLTPTRELAYQIAEQFRVLGKPLGLKDCIIVGGMDMVAQALELSRKPHVVIATPGRLADHLRSSNTFSIKKIRFLVMDEADRLLEQGCTDFTVDLEAILAAVPARRQTLLFSATLTDTLRELQGLATNQPFFWEAQAPVSTVEQLDQRYLLVPEKVKDAYLVHLIQRFQDEHEDWSIIIFTNTCKTCQILCMMLRKFSFPTVALHSMMKQKERFAALAKFKSSIYRILIATDVASRGLDIPTVQVVINHNTPGLPKIYIHRVGRTARAGRQGQAITLVTQYDIHLVHAIEEQIKKKLEEFSVEEAEVLQILTQVNVVRRECEIKLEAAHFDEKKEINKRKQLILEGKDPDLEAKRKAELAKIKQKNRRFKEKVEETLKRQKAGRAGHKGRPPRTPSGSHSGPVPSQGLV

Columns and labels:
3×MBT domain of L3MBTL1 = assay: Triple SILAC pull-down, 3xMBT/3xMBTD355N ratio (cytoplasmic, nuclear and chromatin fractions of 293T cells); assay type: binding, human; conditions: SILAC ratio 3xMBT vs 3xMBTD355N pull-down, 293T cells, all values in log base 2; for 3xMBT/D355N UNC Heavy: experiment with UNC0638 in heavy SILAC media; for 3xMBT/D355N UNC Light: experiment with UNC0638 in light SILAC media;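 on all read-outs here: proteins quantified with MaxQuant, requiring at least two unique peptides and quantification in both label directions, normalized to the mean of proteins from a digested loading control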
G9a and GLP = target: T1, G9a and GLP; assay: Triple SILAC pull-down after UNC0638 treatment of 293T cells, DMSO/UNC0638 ratio of protein captured by 3×MBT; assay type: cell-based; design: endogenous in cells; host or cells: HEK 293T; conditions: all values in log base 2; for Relative to UNC0638 UNC Heavy / Relative to UNC0638 UNC Light: SILAC ratio DMSO relative to UNC0638, pull-down with 3xMBT; for Relative to UNC0638 UNC Heavy: UNC0638 in heavy SILAC media; for Relative to UNC0638 UNC Light: UNC0638 in light SILAC media; for Relative to UNC0638 Average: average of UNC Light and UNC Heavy experiments;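 on all read-outs here: mass spectrometry (Q-Exactive) SILAC quantitation, DMSO/UNC0638 ratio computed after subtracting 3×MBTD355N mutant pull-down background, only proteins with at least twofold 3×MBT over mutant signal considered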

Molecule	3xMBT/D355N UNC Heavy (3×MBT domain of L3MBTL1) [log base 2]	3xMBT/D355N UNC Light (3×MBT domain of L3MBTL1) [log base 2]	Relative to UNC0638 UNC Heavy (G9a and GLP) [log base 2]	Relative to UNC0638 UNC Light (G9a and GLP) [log base 2]	Relative to UNC0638 Average (G9a and GLP) [log base 2]
B1	1.95	2.83	0.19	−0.24	−0.02
B2	3.17	1.77	0.43	−0.49	−0.03
